The text below walks through data of paper PMC6448818, “A novel evolutionary conserved mechanism of RNA stability regulates synexpression of primordial germ cell-specific genes prior to the sex-determination stage in medaka”.

For series [1], the target named is T1, Ol-bsf (Ol-lrpprc, Bicoid Stability Factor) (Oryzias latipes, UniProt H2LIH1 1-1438).
T1 sequence: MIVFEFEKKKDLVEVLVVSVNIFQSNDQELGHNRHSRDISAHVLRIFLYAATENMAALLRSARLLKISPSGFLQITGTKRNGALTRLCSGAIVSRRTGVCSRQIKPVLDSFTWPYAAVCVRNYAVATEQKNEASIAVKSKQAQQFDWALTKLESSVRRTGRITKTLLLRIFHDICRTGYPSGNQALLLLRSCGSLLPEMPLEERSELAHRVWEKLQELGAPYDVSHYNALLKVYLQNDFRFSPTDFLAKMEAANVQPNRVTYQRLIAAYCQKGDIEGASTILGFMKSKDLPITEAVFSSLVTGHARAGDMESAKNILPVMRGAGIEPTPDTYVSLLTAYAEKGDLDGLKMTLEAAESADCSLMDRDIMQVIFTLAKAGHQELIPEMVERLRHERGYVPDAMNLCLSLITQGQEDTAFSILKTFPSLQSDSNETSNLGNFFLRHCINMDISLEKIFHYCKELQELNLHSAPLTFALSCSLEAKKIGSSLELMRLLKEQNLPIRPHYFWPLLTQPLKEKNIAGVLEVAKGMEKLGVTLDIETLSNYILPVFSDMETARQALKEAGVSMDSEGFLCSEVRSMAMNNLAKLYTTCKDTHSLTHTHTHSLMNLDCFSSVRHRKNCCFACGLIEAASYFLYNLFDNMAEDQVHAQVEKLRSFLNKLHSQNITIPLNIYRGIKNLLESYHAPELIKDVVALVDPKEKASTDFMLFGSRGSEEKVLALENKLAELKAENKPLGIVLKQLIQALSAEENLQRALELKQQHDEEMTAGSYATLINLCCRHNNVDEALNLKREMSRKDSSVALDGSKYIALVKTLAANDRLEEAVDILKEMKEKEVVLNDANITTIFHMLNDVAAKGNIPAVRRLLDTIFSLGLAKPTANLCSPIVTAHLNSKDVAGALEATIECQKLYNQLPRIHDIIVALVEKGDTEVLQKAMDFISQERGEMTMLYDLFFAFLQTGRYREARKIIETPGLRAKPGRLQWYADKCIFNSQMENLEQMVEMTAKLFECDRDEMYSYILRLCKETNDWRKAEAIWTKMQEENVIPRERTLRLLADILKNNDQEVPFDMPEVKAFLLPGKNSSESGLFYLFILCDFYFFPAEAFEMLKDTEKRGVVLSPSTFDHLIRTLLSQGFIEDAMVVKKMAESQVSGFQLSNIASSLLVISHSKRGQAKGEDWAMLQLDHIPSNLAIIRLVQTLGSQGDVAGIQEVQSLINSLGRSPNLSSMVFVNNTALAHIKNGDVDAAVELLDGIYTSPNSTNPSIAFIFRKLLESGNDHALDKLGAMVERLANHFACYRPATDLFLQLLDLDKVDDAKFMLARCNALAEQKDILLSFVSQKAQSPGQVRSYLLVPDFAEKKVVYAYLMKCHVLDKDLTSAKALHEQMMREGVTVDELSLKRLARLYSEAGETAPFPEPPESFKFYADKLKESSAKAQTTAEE
Nature of the series: competition; vs labelled D3U-box, probe/competitor 1/5; EMSA: 10 mM Tris-HCl pH 7.9, 100 mM KCl, 10% glycerol, 5 mM MgCl2, 1 ug torula rRNA, 0.075% Triton X-100, 1 mM DTT, 1 ug BSA, 0.5 ng probe, 2 or 4 uL IVT mix in 20 uL, on ice 10 min; heparin (1/10 volume of 50 mg/mL) before loading; 5% native gel, 0.5x TBE. The following applies: protein: ivt; tags: FLAG. (In general: A gel shift assay detects complexes by their altered migration in electrophoresis.)

Series [2] has as its target T1, Ol-bsf (Ol-lrpprc, Bicoid Stability …). Put plainly: EMSA; self-competition 1/1 to 1/4 gave progressive loss of shift; EMSA: 10 mM Tris-HCl pH 7.9, 100 mM KCl, 10% glycerol, 5 mM MgCl2, 1 ug torula rRNA, 0.075% Triton X-100, 1 mM DTT, 1 ug BSA, 0.5 ng probe, 2 or 4 uL IVT mix in 20 uL, on ice 10 min; heparin (1/10 volume of 50 mg/mL) before loading; 5% native gel, 0.5x TBE. The following applies: protein: ivt; tags: FLAG; label: 5'-32P when probe.

In the case of UGGUUCACGUUCUUCAAGACGCUCUGACUCU (ssRNA) [D3U-scrambled box (S-D3U-box)], the binding result in series [1] is listed as “no binding”.

With UGGUUCACGUCUGCUGCAGGUCUCUGACUCU (ssRNA) [native medaka D3U-box], the binding result in series [2] is on record as “binds”.
